The data set has as its target MMP13-undigested human type II collagen (UniProt P02458).

Results on one substance are retold here after US20120237948.

Sequence of MMP13-undigested human type II collagen (P02458 182-1241): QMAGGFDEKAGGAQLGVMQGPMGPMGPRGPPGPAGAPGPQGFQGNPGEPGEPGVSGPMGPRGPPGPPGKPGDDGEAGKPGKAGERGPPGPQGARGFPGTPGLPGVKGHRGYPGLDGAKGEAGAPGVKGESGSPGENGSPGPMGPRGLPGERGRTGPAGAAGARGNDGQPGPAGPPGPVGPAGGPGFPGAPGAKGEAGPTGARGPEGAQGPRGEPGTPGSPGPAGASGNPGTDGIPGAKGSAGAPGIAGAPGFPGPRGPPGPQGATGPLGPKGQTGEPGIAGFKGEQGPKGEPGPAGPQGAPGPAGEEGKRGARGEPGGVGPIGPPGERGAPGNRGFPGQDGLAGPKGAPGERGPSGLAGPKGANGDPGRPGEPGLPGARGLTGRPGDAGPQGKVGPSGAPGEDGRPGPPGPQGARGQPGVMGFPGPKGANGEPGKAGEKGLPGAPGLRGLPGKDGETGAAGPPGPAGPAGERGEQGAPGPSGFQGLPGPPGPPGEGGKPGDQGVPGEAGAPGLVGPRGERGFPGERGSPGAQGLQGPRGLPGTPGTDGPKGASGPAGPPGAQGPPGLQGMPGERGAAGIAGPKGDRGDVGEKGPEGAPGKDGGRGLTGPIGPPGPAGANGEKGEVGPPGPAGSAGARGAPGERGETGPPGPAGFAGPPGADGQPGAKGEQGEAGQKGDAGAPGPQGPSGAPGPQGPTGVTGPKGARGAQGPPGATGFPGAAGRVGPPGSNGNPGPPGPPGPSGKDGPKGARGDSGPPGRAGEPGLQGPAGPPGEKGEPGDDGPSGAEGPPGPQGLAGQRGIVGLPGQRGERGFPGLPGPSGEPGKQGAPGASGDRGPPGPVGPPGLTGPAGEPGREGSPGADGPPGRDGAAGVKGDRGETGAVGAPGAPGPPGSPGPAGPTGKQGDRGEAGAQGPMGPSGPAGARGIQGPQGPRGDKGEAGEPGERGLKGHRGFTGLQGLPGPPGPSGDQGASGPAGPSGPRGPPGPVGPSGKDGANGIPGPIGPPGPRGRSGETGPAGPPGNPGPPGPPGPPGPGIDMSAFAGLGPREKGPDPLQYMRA

As for activated human MMP13, the “amount of the collagen neoepitope in the enzyme-reaction buffer (sandwich ELISA of Example 4)” value is reported as “the measurements of the neoepitope increased in a manner dependent on the dose of MMP13 added”.
